Assay results: publication PMC13061601, “CLCC1 promotes hepatic neutral lipid flux and nuclear pore complex assembly” (Nature, 2026)

Biological target: the molecule itself
Assay: migration on a gel, blot (Supplementary Fig. 8c); without reducing agent; sample and gel conditions not shown

B1: CLCC1 (natural protein, human, UniProt Q96S66 19-551, looked up)
chain: HDDDWIDPTDMLNYDAASGTMRKSQAKYGISGEKDVSPDLSCADEISECYHKLDSLTYKIDECEKKKREDYESQSNPVFRRYLNKILIEAGKLGLPDENKGDMHYDAEIILKRETLLEIQKFLNGEDWKPGALDDALSDILINFKFHDFETWKWRFEDSFGVDPYNVLMVLLCLLCIVVLVATELWTYVRWYTQLRRVLIISFLFSLGWNWMYLYKLAFAQHQAEVAKMEPLNNVCAKKMDWTGSIWEWFRSSWTYKDDPCQKYYELLLVNPIWLVPPTKALAVTFTTFVTEPLKHIGKGTGEFIKALMKEIPALLHLPVLIIMALAILSFCYGAGKSVHVLRHIGGPESEPPQALRPRDRRRQEEIDYRPDGGAGDADFHYRGQMGPTEQGPYAKTYEGRREILRERDVDLRFQTGNKSPEVLRAFDVPDAEAREHPTVVPSHKSPVLDTKPKETGGILGEGTPKESSTESSQSAKPVSGQDTSGNTEGSPAAEKAQLKSEAAGSPDQGSTYSPARGVAGPRGQDPVSSPCG
notes: CLCC1, human
stoichiometry N: 2
